The test system of the data set is T1, Cc1cc(=O)oc2cc(NC(=O)CC[C@H](N)C(=O)O)ccc12.
T1 construct: purchased Asahi Kasei Co., Ltd. HC-GTP (lot 603AA)
Kind of data set: Hydrolytic assay of human GGT (Michaelis constant of substrate). To be noted: other: human GGT, substrate concentration 4.0 μM. In kind it is biochemical. As for the experimental part:
In the experiment, at first, Michaelis constants (Km) for 7-(γ-L-glutamylamino)-4-methylcoumarin as substrate were measured by a fluorescence method [Smith, G. D.; Ding, J. L.; Peters, T. J. Anal. Biochem. 100, 136-139 (1979)] for the hydrolytic activities of E-coli GGT and human GGT.
In the hydrolytic assay of human GGT, the measurement was carried out in the same manner as that in the hydrolytic assay of E-coli GGT, except that the substrate concentration was changed to […] and therefore, the explanation of the common portions was omitted.

Our source for the Km values is patent publication US8129557B2, “Phosphonic acid diester derivative and method for producing thereof” (priority 2005, dated 2012).

human GGT (Homo sapiens), sequence (chain, as listed by the source): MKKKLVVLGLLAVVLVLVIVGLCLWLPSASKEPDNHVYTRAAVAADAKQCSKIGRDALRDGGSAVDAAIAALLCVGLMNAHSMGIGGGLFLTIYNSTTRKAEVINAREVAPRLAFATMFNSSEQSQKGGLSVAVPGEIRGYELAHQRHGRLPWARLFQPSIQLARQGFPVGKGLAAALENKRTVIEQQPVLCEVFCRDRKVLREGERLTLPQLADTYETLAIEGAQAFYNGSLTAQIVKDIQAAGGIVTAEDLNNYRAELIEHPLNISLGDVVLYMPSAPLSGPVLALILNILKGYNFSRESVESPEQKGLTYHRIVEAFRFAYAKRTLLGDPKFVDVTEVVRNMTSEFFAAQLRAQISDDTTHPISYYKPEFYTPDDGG
human GGT (Homo sapiens), sequence (chain, as listed by the source): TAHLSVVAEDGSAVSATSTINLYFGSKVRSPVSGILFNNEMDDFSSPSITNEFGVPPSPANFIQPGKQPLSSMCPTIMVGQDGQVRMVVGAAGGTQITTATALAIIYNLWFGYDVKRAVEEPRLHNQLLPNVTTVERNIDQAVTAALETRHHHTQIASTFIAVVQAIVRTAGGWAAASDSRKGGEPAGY

Take human GGT (Homo sapiens): the Km (usually the concentration of substrate that gives half-maximal velocity) stood at 12.6 µM.
